Legend:
RBD-mFc = RBD-mFc (SARS-CoV-2, UniProt P0DTC2); test: BLI
S1-hFc = S1-hFc (SARS-CoV-2); test: BLI

B1: RBD-1-2G(NCATS-BL8125) (VHH)
VHH: EVQLVESGGGLVQPGGSLRLSCAASGFSSIVYMGWFRQAPGKGRELVAAIDASGSTTNYPDSVEGRFTISRDNAKRMVYLQMNSLRAEDTAVYYCAIAYFTSPEYVVSQGWGQGTQVTVSS
RBD-mFc
  koff: 0.00024 s⁻¹
S1-hFc
  koff: 0.0002 s⁻¹
